# Data published in US20190262327A1, “COMBINATION OF A BACE INHIBITOR AND AN ANTIBODY OR ANTIGEN-BINDING FRAGMENT FOR THE TREATMENT OF A DISORDER ASSOCIATED WITH THE ACCUMULATION OF AMYLOID BETA” (ASTRAZENECA AB, priority 2016, published 2019).
# B1: Abet0380-GL IgG1-TM: germlined Abet0380; VH SEQ ID NO: 524, VL SEQ ID NO: 533; human IgG1 triple mutant format (antibody, listed as Homo sapiens, V domains shown)
# VH: EVQLLESGGGLVQPGGSLRLSCAASMGNFNYQTMWWVRQAPGKGLEWVSVIGKTNENIAYADSVKGRFTISRDNSKNTLYLQMNSLRAEDTAVYYCAREWMDHSRPYYYYGMDVWGQGTLVTVSS
# VL: SYELTQPPSVSVSPGQTASITCSGHNLEDKFASWYQQKPGQSPVLVIYRDDKRPSGIPERFSASNSGHTATLTISGTQAMDEADYYCSSQDTVTRVFGGGTKLTVL
# modifications: human IgG1 triple mutant constant region; /note=“Abet0380-GL”
# notes: germlined Abet0380; human IgG1 triple mutant format
# How the values were obtained:
# [1] = biological target: T1, biotinylated human Amyloid beta 1-40 (Homo sapiens, UniProt P05067); test: Surface Plasmon Resonance specificity profiling of IgGs (BIAcore2000); assay type: binding; conditions: peptide 64-1024 nM
# T1 construct: biotinylated human Amyloid beta 1-40 (rPeptide, USA; cat: A1111); purchased rPeptide, USA A1111; host or cells: synthetic peptide
# T1 sequence (P05067 672-711): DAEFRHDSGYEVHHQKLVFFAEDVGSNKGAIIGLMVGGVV
# Procedure: (§1) Surface Plasmon Resonance was used to verify the specificity of the affinity-optimized IgGs for the human Amyloid beta 1-42 peptide. Briefly, the BIAcore2000 (GE Healthcare, UK) biosensor instrument was used to assess the kinetic parameters of the interaction between each test IgG and a range of small peptides including synthetically-produced human Amyloid beta 1-42 and human Amyloid beta 1-40. These experiments were performed essentially as described by Karlsson et al. (Karlsson et al., 1991).
# (§2) The interaction between each test IgG and each peptide was estimated using assays in which the antibody was non-covalently captured by a protein G surface that was itself amine linked to a proprietary CM5 chip. The interaction between antibody and peptide was observed using a 5 application single cycle approach. The chip surface was regenerated between cycles by paired 40 second injections of 10 mM Glycine pH 2.0 to remove ligand and bound antibody. The test antibody was then reapplied for each peptide injection cycle.
# (§3) Blank reference flow-cell data were subtracted from each IgG dataset and a zero-concentration antibody-only buffer blank was double-reference subtracted from the main dataset.
# [2] = biological target: T2, biotinylated human Amyloid beta 1-42 (Homo sapiens, UniProt P05067); test: as above; assay type: binding; conditions: peptide 64-1024 nM
# T2 construct: biotinylated human Amyloid beta 1-42 peptide (rpeptide, USA; cat: A1117); purchased rPeptide, USA A1117; host or cells: synthetic peptide
# T2 sequence (P05067 672-713): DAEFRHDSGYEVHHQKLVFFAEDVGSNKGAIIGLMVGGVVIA
# Procedure: as §1, §2, §3
# [3] = biological target: T3, unlabelled murine Amyloid beta 1-40 (Mus musculus, UniProt P12023); test: as above; assay type: binding; conditions: peptide 64-1024 nM
# T3 construct: unlabelled murine Amyloid beta 1-40 (rPeptide, USA; cat: A1007); purchased rPeptide, USA A1007; host or cells: synthetic peptide
# T3 sequence (P12023 672-711): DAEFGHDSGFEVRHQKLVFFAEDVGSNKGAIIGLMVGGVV
# Procedure: as §1, §2, §3
# [4] = biological target: T4, unlabelled murine Amyloid beta 1-42 (Mus musculus, UniProt P12023); test: as above; assay type: binding; conditions: peptide 64-1024 nM
# T4 construct: unlabelled murine Amyloid beta 1-42 (rPeptide, USA; cat: A1008); purchased rPeptide, USA A1008; host or cells: synthetic peptide
# T4 sequence (P12023 672-713): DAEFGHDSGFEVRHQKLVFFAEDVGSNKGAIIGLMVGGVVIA
# Procedure: as §1, §2, §3
# Amyloid plaques = test: In vitro immunohistochemistry on Tg2576 mouse brain sections
# From the text: Briefly, the lead antibodies were screened on human Alzheimer's Disease brain sections and Tg2576 mouse brain sections to identify anti-Amyloid beta 1-42 antibodies that bound to Amyloid plaques in vitro.
# In these experiments, human brain tissue was isolated from the frontal cortex of two individuals with severe Alzheimer's Disease (ApoE genotype 3/3, Braak stage 6 and ApoE genotype 4/3, Braak stage 5). As a control, equivalent tissue was isolated from one non-dementia individual (ApoE genotype 3/3, Braak stage 1). Mouse brain tissue was isolated from Tg2576 mice at an age of 15 months (2 mice) and 22 months (2 mice). Antibodies were tested at concentrations of 2, 5, 10 and 20 ug ml^−1.
# [5] = test system: human Abeta peptides (Abeta 1-42, Abeta 1-43, Abeta 1-16, Abeta 12-28, Abeta 17-42, Abeta pyro-3-42, Abeta pyro-11-42); test: HTRF competition binding experiments with panel of Abeta peptides; conditions: competitor 10 uM down to 0.17 nM; antibody 0.5 nM
# Procedure: The specificity of Abet0380-GL IgG1-TM was examined in competition binding experiments. In brief Abet0380-GL IgG1-TM (0.5 nM) was incubated (1 hr at room temperature) with a range of different concentrations (10 uM down to 0.17 nM) of a panel of full length, truncate and pyro human Abeta peptides (Abeta 1-42, Abeta 1-43, Abeta 1-16, Abeta 12-28, Abeta 17-42, Abeta pyro-3-42, or Abeta pyro-11-42).
# Following the incubation between Abet0380-GL IgG1-TM and the Abeta peptides N-terminal biotin Abeta 1-42 (1.5 nM) was added followed by a europium cryptate labelled anti-human Fc antibody (0.8 nM) (CisBio Cat. No. 61HFCKLB) and streptavidin-XL^entl (5 nM) (CisBio Cat. No. 611SAXLB). The assay was then incubated for a further 2 hrs at room temperature before reading on an Envision plate reader (PerkinElmer) using a standard homogeneous time resolved fluorescence (HTRF) read protocol. In the absence of competition, the interaction of N-terminal biotin Abeta 1-42 with Abet0380-GL IgG1-TM (in complex with streptavidin-XL^entl and europium cryptate labelled anti-human Fc antibody, respectively) could then be measured via time resolved fluorescence resonance energy transfer (TR-FRET) due to the proximity of the europium cryptate donor and XL^665 acceptor fluorophores. […]
# [6] = listed as Abet0380-GL (germlined) IgG1-TM
molecule,measurement,setting,value
B1,binding of biotinylated human Amyloid beta 1-40 peptide to immobilized antibody,[1],no discernable binding
same,binding of biotinylated human Amyloid beta 1-40 peptide to immobilized antibody,[1]; [6],no binding
same,binding of biotinylated human Amyloid beta 1-42 peptide to immobilized antibody,[2],clear binding
same,binding of biotinylated human Amyloid beta 1-42 peptide to immobilized antibody,[2]; [6],strong binding
same,binding of unlabelled murine Amyloid beta 1-40 peptide to immobilized antibody,[3],no discernable binding
same,binding of unlabelled murine Amyloid beta 1-40 peptide to immobilized antibody,[3]; [6],no binding
same,binding of unlabelled murine Amyloid beta 1-42 peptide to immobilized antibody,[4],clear binding
same,binding of unlabelled murine Amyloid beta 1-42 peptide to immobilized antibody,[4]; [6],strong binding
same,core plaques (CP) staining score,Amyloid plaques; Tg2576 brain sections,4
same,plaque recognition score,"Amyloid plaques; Tg2576 mouse brain sections, 22 month old mice, 20 μg/ml",4
same,inhibition of antibody : N-terminal Biotin Abeta 1-42 binding by Abeta 1-16 or Abeta 12-28,[5],No inhibition
